Reference: PMC4521846
Like-named read-outs stand apart in the source and are kept apart here.

Columns and labels:
[1] = molecular target: Elongation factor Tuf of Legionella pneumophila, recombinant, hexahistidine-tagged (Legionella pneumophila); test: ELISA
[2] = molecular target: Translation elongation factor Tuf of Acinetobacter baumannii type strain ATCC 19606, recombinant, N-terminally hexahistidine-tagged (Acinetobacter baumannii ATCC 19606) (UniProt B7H1K5); test: ELISA; immobilised TufAb, plasminogen (10 ug/ml) with increasing concentrations of the lysine analog tranexamic acid (up to 50 mM)
[3] = molecular target: Translation elongation factor Tuf of Acinetobacter baumannii type strain ATCC 19606, recombinant, N-terminally hexahistidine-tagged (Acinetobacter baumannii ATCC 19606) (UniProt B7H1K5); test: ELISA; immobilised TufAb, plasminogen (10 ug/ml) with increasing concentrations of NaBr (up to 1 M)
[4] = molecular target: Translation elongation factor Tuf of Acinetobacter baumannii type strain ATCC 19606, recombinant, N-terminally hexahistidine-tagged (Acinetobacter baumannii ATCC 19606) (UniProt B7H1K5); test: ELISA; immobilised Tuf (5 ug/ml) incubated with increasing amounts of plasminogen; apparent dissociation constants by non-linear regression
[5] = molecular target: Plasminogen (Homo sapiens) (UniProt P00747); conditions: cited from earlier work
[6] = molecular target: Plasminogen (Homo sapiens) (UniProt P00747); conditions: cited from earlier work; remark: listed apart in the source

Human glu-plasminogen (natural protein)
Kd [1]: 69 nM
percent decrease of binding with 50 mM tranexamic acid, against reactions without it [2]: 50%
percent of binding left with 1 M NaBr, against reactions without NaBr [3]: 55%
Kd [4]: 57 nM

Enolase (from UniProt B8DTI9)
Kd [5]: 42 nM

DnaK (from UniProt B8DT62)
Kd [6]: 11 nM
